Results published in the supplement of paper PMC10567573.

B1: SLC25A39 (parent)
chain: LTSDLYAPMVAGALARLGTVTVIS

Variants of: B1
Assay: protein stability index of a GFP-peptide fusion (GPS, HEK-293T) (PSI 1-6); higher = more stable
Details: c terminus: a fixed tail appended
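Also: lentivirally expressed fusions sorted by FACS into six bins by GFP to DsRed ratio, PSI derived from sequencing read proportions per bin multiplied by bin number.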

Protein stability index: each site, then its substitutions
A13: D 1.74; S 1.38; H 2.47; V 2.79
T21: D 3.1; N 2.79; Q 2.95; R 2.12; M 2.7; H 2.26; E 2.09; V 2.03; F 3.5; W 3.97
A11: T 2.81; D 1.65; K 2.39; M 2.95; P 3.19; F 3.02; L 2.5; Q 1.65; Y 4.45; H 2.69; N 2.3
L17: K 1.75; D 2.47; E 2.71; G 3.15; F 2.95; P 1.69; H 2.7; A 1.92; W 4.43; N 1.96; Y 2.12; T 1.52; V 2.22; R 1.1; I 3.23; C 1.56; S 2.51
G18: R 2.66; A 2.61; H 4.48; T 3.39; K 2.53; W 3.57; P 2.57; D 2.53
S24: E 2.61; Q 1.45; G 3; P 2.21; T 4.15; W 3.06; R 2.26; H 3.6; D 3.34; C 3.08; N 1.91; I 1.56; K 1.61
A15: T 3.55; M 4.42; E 1.39; S 3.49; L 1.45; K 3.12; R 2.1; F 2.6; P 1.97; D 1.93; G 2.69; Q 3.66; N 1.87
M9: C 1.65; N 1.01; K 1.52; D 1.78; Q 2.57; A 2.21; E 2.54; S 1.75; G 1.6; H 1.77; I 2.76; P 1.5; L 3.65; Y 3.86; T 2.35; R 1.36
R16: W 2.85; P 1.98; L 2.76; A 2.1; F 4.13; E 1.76; Y 2.35; D 2.58; N 1.5; I 2.97; S 2.41; M 3.22; Q 3.11
V10: F 2.85; R 1.49; M 4.25; D 1.9; A 3.92; G 2.72; K 2.15; H 2.45; T 3.25; E 1.21; C 3.02; Q 1.96; Y 2.63; N 1.96; S 2.6; W 2.29; P 1.85
G12: P 1.23; L 3.83; S 1.53; V 3.9; Y 2.21; I 3.04; H 2.64; Q 4.46; K 3.64; R 3.52
L14: D 1.83; Y 3.67; R 1.72; K 1; Q 1.53; E 1.91; S 1.69; W 5.23; N 1.69; H 1.12; G 2.76; V 2.83; F 3.32; C 3.43; T 1.58; P 2.24; A 1.79
P8: W 2.68; M 3.46; N 1.7; S 3.97; T 3.06
V22: Y 1.6; L 3.04; T 2.04; N 1.11; P 1.61; A 2.58; D 1.49; K 1.74; S 2.31; E 2.08; F 2.47; C 3.43; R 2.82
